Experimental data: US20170327597A1

Target: Z-domain (an engineered analogue of the IgG-binding domain of protein A)
Test: isothermal titration calorimetry, Z-domain injected into IgG

mmIgG2b-P307T-Q309L-K409R (antibody)
fold tighter binding than mmIgG2b-F405L: 5 fold
